In the supplement of paper PMC12042874 one finds amyloid nucleation score data, which are given here for 104 substances.

± gives the uncertainty stated by the source.

This data set can be described thus: amyloid nucleation score (Sup35N fusion, yeast selection) (log enrichment); library NNK1; higher = more nucleation; inactive = no reads after selection. In outline: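 After 24 hours of induction with 100 μM copper sulfate, psi-negative yeast expressing peptides of 20 random codons fused to Sup35N were grown for 7 days at 30°C on medium lacking adenine and uracil. Input and output plasmid inserts were sequenced with Illumina, and sequences with under 100 input reads were discarded. Scores for nucleation are the DiMSum log enrichment of output over input reads, centred on the mode score of non-aggregating sequences.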
Take LIMNFGGRLRVAGFGVLVMD: the amyloid nucleation score amounted to 2.09 ± 0.15.

The substance TGCRGSVMSFDMLFSYILYL yielded an amyloid nucleation score of 0.205 ± 0.26.

Regarding IYWRILEL, the amyloid nucleation score is -0.034 ± 0.85.

NNGRLYVTIRLMDINLVVHT registered an amyloid nucleation score of 0.616 ± 0.43.

With SNLECV, the amyloid nucleation score is -0.019 ± 0.51.

In turn, RLFTYYTVRNPYVADKFYNR showed an amyloid nucleation score of 5.174 ± 0.051.

Turning to DSGLLMKVSWKSDNC, the amyloid nucleation score is -0.284 ± 0.39.

NLVVTTWARDIADYISAS registered an amyloid nucleation score of -0.01 ± 0.4.

For the substance SPGFYLHGYQQNQHP, the amyloid nucleation score is 0.653 ± 0.68.

Turning to FVTDCLHYRRTWQLGC, the amyloid nucleation score was 0.419 ± 0.28.

On to EGMFFRGSLSK, for which the amyloid nucleation score is 3.31 ± 0.16.

Substance KLALRKGSRDVH registered an amyloid nucleation score of 0.661 ± 0.97.

ESNVWICAPPTDPWAIQTLR gave an amyloid nucleation score of -0.149 ± 0.51.

For SHTAVFSRAAIEMCCRDWRA, the amyloid nucleation score worked out at 0.537 ± 0.47.

In turn, CSREYDVVGLA returned an amyloid nucleation score of 0.401 ± 0.28.

In the case of VIMCNI, the amyloid nucleation score came out at 0.068 ± 0.93.

Turning to KKYVRGWGAFLAMQHGGMM, the amyloid nucleation score was -0.604 ± 0.6.

For the substance TFVYLCVAHS, the amyloid nucleation score came to 1.07 ± 0.53.

Regarding SWRLRIIGEWRAFGDNMDSR, the amyloid nucleation score worked out at 2.75 ± 0.15.

Substance WLAFWCDLGVSSSFFWAFCG displayed an amyloid nucleation score of -0.066 ± 0.37.

LECSNSNLWCTPN came in with an amyloid nucleation score of 0.712 ± 0.69.

Consider IGLRWYSFLLRMSGLSSTGA, for which the amyloid nucleation score was -0.23 ± 0.24.

Consider LFVFPVESCMCMQLRVAQSK, for which the amyloid nucleation score is 0.642 ± 0.62.

With YNSETSPVCYELTCESFCIV, the amyloid nucleation score is -1.23 ± 2.4.

Take CLNGGNFYRSLTRAKTNKNF: the amyloid nucleation score is -0.258 ± 1.1.

Consider DFSYYLWGMSV, for which the amyloid nucleation score was -0.991 ± 2.4.

On to VDLGRSKWCLTMYESYENGR, for which the amyloid nucleation score was -0.127 ± 0.3.

Regarding CNVEAG, the amyloid nucleation score is -1.55 ± 1.1.

In turn, GSHWPYDGWWISYLWFHLR registered an amyloid nucleation score of 0.858 ± 0.38.

TTKSLSVSLGGHYYVTRVRR: the amyloid nucleation score came out at 0.81 ± 0.83.

For TSPYAFKRWFSLGLYDLSRF, the amyloid nucleation score entry was “inactive”.

SGCSRRCWLGSRPGSWGACC showed an amyloid nucleation score of 0.698 ± 0.45.

In turn, LFCTTSVDNKGPVRLPLVCV registered an amyloid nucleation score of -0.282 ± 1.7.

As for FHKVLSMFMMIVLVVKTWTT, the amyloid nucleation score entry was “inactive”.

AMWSSLIDMCNNG yielded an amyloid nucleation score of 0.35 ± 0.25.

As for MWWCGSHSFSFYFRLRSDWR, the amyloid nucleation score worked out at 0.829 ± 1.

FIQGLCMVFDVSYLRLS had an amyloid nucleation score of 2.8 ± 0.15.

Consider YLLESSTIGIV, for which the amyloid nucleation score was 0.474 ± 0.69.

With CLSRHLKNGPRMA, the amyloid nucleation score came out at 0.495 ± 1.

On to NLWSGFLRFKFSCGRIDGIL, for which the amyloid nucleation score was -0.622 ± 0.41.

Substance IVLRDFHGLSWAWSLIVHVK showed an amyloid nucleation score of 0.039 ± 0.88.

For YILSFFCVVEARDFFVDFEM, the amyloid nucleation score came out at 5 ± 0.062.

In turn, LVMYDSL registered an amyloid nucleation score of 0.489 ± 0.58.

The substance IFPCNFSGNYLRKVWFPVRY registered an amyloid nucleation score of 0.42 ± 0.91.

Turning to YIGTKCWNANHVVLLLFCRG, the amyloid nucleation score was -0.127 ± 0.32.

VPTMEMTVAYGSWTCSERCE: the amyloid nucleation score was -0.468 ± 0.44.

In turn, HQIPCPFRSRLARPGHLLEI yielded an amyloid nucleation score of -0.612 ± 1.

Turning to WIYGWACWYCNLNDSTRVGK, the amyloid nucleation score was determined as 5.798 ± 0.047.

As for FNWLTTEFRW, the amyloid nucleation score is -0.037 ± 0.36.

As for YPTPLQVFVRSRFDRRI, the amyloid nucleation score was -0.132 ± 0.26.

Turning to SEWIKLRVRLDLSLVAFKII, the amyloid nucleation score was 0.686 ± 0.39.

In the case of VGLMAVLRVGRKGLPLKNME, the amyloid nucleation score is -0.082 ± 0.31.

In the case of CVIKHSLRCFAIIGLSHRGG, the amyloid nucleation score was -0.255 ± 0.97.

For the substance IFYSSFS, the amyloid nucleation score entry is “inactive”.

Turning to SVGDIFSMWSVCSSVNDRCK, the amyloid nucleation score turned out to be 0.415 ± 0.21.

On to MGIWSFDTVTRGAMTSVGDA, for which the amyloid nucleation score was determined as 0.252 ± 0.62.

In turn, EDMPFMTLKVIVFVTLMHLR returned an amyloid nucleation score of 2.02 ± 0.62.

Substance GIKAIKCDEPSCAVLGLNSS displayed an amyloid nucleation score of -0.536 ± 0.5.

Take FKSGRDSGMRG: the amyloid nucleation score is -1.57 ± 1.1.

The substance IICFVVISWTRFLMSQKCFC gave an amyloid nucleation score of -0.143 ± 0.35.

In the case of SFDLGYPIFCKYTRT, the amyloid nucleation score is 0.576 ± 0.52.

Take RRTWNWPTWIMRSRRREGHG: the amyloid nucleation score came to 0.368 ± 0.42.

SMVVV: the amyloid nucleation score entry was “inactive”.

Substance GTGLVAMVAT showed an amyloid nucleation score of -1.24 ± 1.1.

WRVSMFGLSESLDRLPCKDL registered an amyloid nucleation score of -0.371 ± 0.45.

In turn, LSWVMRYLPYVVFLSYDQPG displayed an amyloid nucleation score of -0.723 ± 0.62.

VFASVRLSCMEGGTLVG registered an amyloid nucleation score of 0.241 ± 0.33.

On to LGRIDRWKDQWCSLAELKS, for which the amyloid nucleation score was -0.383 ± 1.7.

In turn, LFRSSKSIRSLLSFCSICMF displayed an amyloid nucleation score of 5.33 ± 0.076.

The substance HKNSTVKSVWQDLMSDVDVD showed an amyloid nucleation score of -0.028 ± 0.43.

With PGRSTHDIRSGPAEYTDSVC, the amyloid nucleation score is 0.487 ± 0.63.

On to FLSVFRL, for which the amyloid nucleation score is -0.884 ± 1.1.

Turning to NWLTTQNI, the amyloid nucleation score is -0.371 ± 0.42.

Regarding YLDVLGAFC, the amyloid nucleation score is -0.214 ± 0.47.

GTFSGQKLCYVCVSLSGFG: the amyloid nucleation score amounted to 0.005 ± 0.5.

In turn, CLQMRSVSYVIMRFTGKLTW returned an amyloid nucleation score of 0.693 ± 0.32.

As for MNNKDDAVYVEHL, the amyloid nucleation score was 0.072 ± 0.23.

As to RVPAFRY, the amyloid nucleation score result was “inactive”.

GGLQKMVPNSNLCFLEDP had an amyloid nucleation score of -0.713 ± 1.7.

For the substance NWLNWLTHLFS, the amyloid nucleation score was 0.407 ± 0.49.

GSLFYVRLLYRGCNTEITSK: the amyloid nucleation score turned out to be 0.925 ± 1.1.

In turn, ALLSSYLWK gave an amyloid nucleation score of 0.996 ± 0.45.

In turn, ASVILIVPINLYLYVVYVWI showed an amyloid nucleation score of 3.2 ± 0.15.

Substance LLTMFLFNGSKYFLH came in with an amyloid nucleation score of 2.3 ± 0.2.

TLKAVHTLTTD registered an amyloid nucleation score of 2.4 ± 0.23.

On to VIIAEVDVVA, for which the amyloid nucleation score is -0.186 ± 0.57.

MMGASGFF registered an amyloid nucleation score of -0.14 ± 0.32.

WWRIIGTEAQNMGG: the amyloid nucleation score was 0.631 ± 0.55.

In turn, YNWYPEWLCYIFRTKQVVGT yielded an amyloid nucleation score of 0.382 ± 0.45.

Take SLPNILLSQPMFRRISSMLQ: the amyloid nucleation score amounted to 1.17 ± 0.62.

Regarding SIVMGSVMTFGFDIFL, the amyloid nucleation score amounted to 4.47 ± 0.066.

Substance AYKGMSLPDRIFKWLVWWHN gave an amyloid nucleation score of 0.008 ± 0.53.

Regarding FNYHACSNFSFSPDQPSFHC, the amyloid nucleation score was 0.553 ± 0.45.

Turning to FGTLCSGDRYVRR, the amyloid nucleation score is -0.611 ± 0.28.

YCTVVKFLHATFQFSNPLGM: the amyloid nucleation score is 1.58 ± 0.48.

In turn, FGTGFSLCKFFCLAMRPSDV showed an amyloid nucleation score of 5.25 ± 0.08.

In turn, YRLKRINCGHVGHYMEDIRR had an amyloid nucleation score of -0.099 ± 0.29.

With YLFFNLYCNYVLTAMLRACS, the amyloid nucleation score entry is “inactive”.

In turn, GSPLWLVVPVPGEHVSSLSL gave an amyloid nucleation score of -0.047 ± 0.36.

Regarding CTKCYPGVLYYFDCSGPGTR, the amyloid nucleation score is -0.51 ± 0.65.

With ALLMGDFGCFLYTFGWFYAK, the amyloid nucleation score is -0.173 ± 0.41.

In turn, EEPLIGLDKMPYPGTVYEIA returned an amyloid nucleation score of 0.066 ± 0.87.

Substance YHNCDKDAANLFYCQ registered an amyloid nucleation score of 2.01 ± 0.47.

As for LIHLMRRNAAKTPGAQRDN, the amyloid nucleation score is 0.947 ± 0.7.
